In paper PMC6278910, “Reduced structural flexibility for an exonuclease deficient DNA polymerase III mutant†”:

Assays:
[1] = molecular target: T1, Pol III alpha (clamp-binding enhanced; called wild type);Pol III epsilon exonuclease (clamp-binding … (Escherichia coli;Escherichia …, UniProt P10443;P03007;P0ABS8;P0A988 1-1160;1-243;1-76;1-366, A921L;M923L|T183L;M185L;A186P;F187L|E41C|); test: smFRET; dCTP, Mg2+; kon,fast 0.8±0.1, kon,slow 0.030±0.010, koff 0.20±0.01 s-1 (25 nM enzyme); 20 mM Hepes pH 7.6, 5 mM potassium glutamate, 3 mM magnesium acetate, 2 mM DTT, 2 mM Trolox, 25 nM enzyme, 10 uM dCTP; temperature not stated. PIFE with unlabeled Pol III alpha or alpha-epsilon at 25 nM showed no binding (DNA not specified, not listed); settings: protein: recombinant;recombinant;recombinant;recombinant, (HisTrap purification), Cy5 maleimide at C41;, copies: 1;1;1;2, label: 5' biotin-TEG and Cy3 (amino dT-C6) on template, 7 nt upstream from primer 3' terminus, 5' overhang 14 nt on template, matched G:ddC terminus
[2] = molecular target: T2, Pol III alpha Y453A (clamp-binding enhanced);Pol III epsilon exonuclease (clamp-binding enhanced);Pol III … (Escherichia coli;Escherichia …, UniProt P10443;P03007;P0ABS8;P0A988 1-1160;1-243;1-76;1-366, Y453A;A921L;M923L|T183L;M185L;A186P;F187L|E41C|); test: smFRET; dCTP, Mg2+; kon,fast 0.7±0.1, kon,slow 0.05±0.01, koff 0.40±0.02 s-1; 20 mM Hepes pH 7.6, 5 mM potassium glutamate, 3 mM magnesium acetate, 2 mM DTT, 2 mM Trolox, 25 nM enzyme, 10 uM dCTP; temperature not stated. PIFE with unlabeled Pol III alpha or alpha-epsilon at 25 nM showed no binding (DNA not specified, not listed); settings: protein: recombinant;recombinant;recombinant;recombinant, (HisTrap purification), Cy5 maleimide at C41;, copies: 1;1;1;2, label: 5' biotin-TEG and Cy3 (amino dT-C6) on template, 7 nt upstream from primer 3' terminus, 5' overhang 14 nt on template, matched G:ddC terminus
[3] = molecular target: T2, Pol III alpha Y453A (clamp-binding …); test: smFRET; dCTP, Mg2+; kon N.D., koff 0.30±0.02 s-1; 20 mM Hepes pH 7.6, 5 mM potassium glutamate, 3 mM magnesium acetate, 2 mM DTT, 2 mM Trolox, 25 nM enzyme, 10 uM dCTP; temperature not stated. PIFE with unlabeled Pol III alpha or alpha-epsilon at 25 nM showed no binding (DNA not specified, not listed); settings: protein: recombinant;recombinant;recombinant;recombinant, (HisTrap purification), Cy5 maleimide at C41;, copies: 1;1;1;2, label: 5' biotin-TEG and Cy3 (amino dT-C6) on template, 7 nt upstream from primer 3' terminus, 5' overhang 14 nt on template, terminal double mismatch
[4] = molecular target: T1, Pol III alpha (clamp-binding enhanced; …); test: as above; settings: protein: recombinant;recombinant;recombinant;recombinant, (HisTrap purification), Cy5 maleimide at C41;, copies: 1;1;1;2, label: 5' biotin-TEG and Cy3 (amino dT-C6) on template, 7 nt upstream from primer 3' terminus, 5' overhang 14 nt on template, terminal double mismatch
[5] = molecular target: T2, Pol III alpha Y453A (clamp-binding …); test: smFRET; dCTP, Mg2+; kon,fast 1.5±0.3, kon,slow 0.04±0.01, koff 0.30±0.02 s-1; 20 mM Hepes pH 7.6, 5 mM potassium glutamate, 3 mM magnesium acetate, 2 mM DTT, 2 mM Trolox, 25 nM enzyme, 10 uM dCTP; temperature not stated. PIFE with unlabeled Pol III alpha or alpha-epsilon at 25 nM showed no binding (DNA not specified, not listed); settings: protein: recombinant;recombinant;recombinant;recombinant, (HisTrap purification), Cy5 maleimide at C41;, copies: 1;1;1;2, label: 5' biotin-TEG and Cy3 (amino dT-C6) on template, 7 nt upstream from primer 3' terminus, 5' overhang 14 nt on template, terminal G:A mismatch
[6] = molecular target: T1, Pol III alpha (clamp-binding enhanced; …); test: smFRET; dCTP, Mg2+; kon,fast 0.3±0.1, kon,slow 0.020±0.002, koff 0.20±0.01 s-1; 20 mM Hepes pH 7.6, 5 mM potassium glutamate, 3 mM magnesium acetate, 2 mM DTT, 2 mM Trolox, 25 nM enzyme, 10 uM dCTP; temperature not stated. PIFE with unlabeled Pol III alpha or alpha-epsilon at 25 nM showed no binding (DNA not specified, not listed); settings: protein: recombinant;recombinant;recombinant;recombinant, (HisTrap purification), Cy5 maleimide at C41;, copies: 1;1;1;2, label: 5' biotin-TEG and Cy3 (amino dT-C6) on template, 7 nt upstream from primer 3' terminus, 5' overhang 14 nt on template, terminal G:A mismatch
[7] = molecular target: T1, Pol III alpha (clamp-binding enhanced; …); test: smFRET; non-hydrolyzable dCTP analog, Mg2+; kon,fast 0.6±0.1, kon,slow 0.020±0.007, koff 0.20±0.01 s-1; 20 mM Hepes pH 7.6, 5 mM potassium glutamate, 3 mM magnesium acetate, 2 mM DTT, 2 mM Trolox, 25 nM enzyme, 10 uM dCTP; temperature not stated. PIFE with unlabeled Pol III alpha or alpha-epsilon at 25 nM showed no binding (DNA not specified, not listed); settings: protein: recombinant;recombinant;recombinant;recombinant, (HisTrap purification), Cy5 maleimide at C41;, copies: 1;1;1;2, label: 5' biotin-TEG and Cy3 (amino dT-C6) on template, 7 nt upstream from primer 3' terminus, 5' overhang 14 nt on template, matched G:C terminus
[8] = molecular target: T2, Pol III alpha Y453A (clamp-binding …); test: smFRET; non-hydrolyzable dCTP analog (stated for wild type), Mg2+; kon,fast 0.8±0.1, kon,slow 0.04±0.01, koff 0.30±0.01 s-1; 20 mM Hepes pH 7.6, 5 mM potassium glutamate, 3 mM magnesium acetate, 2 mM DTT, 2 mM Trolox, 25 nM enzyme, 10 uM dCTP; temperature not stated. PIFE with unlabeled Pol III alpha or alpha-epsilon at 25 nM showed no binding (DNA not specified, not listed); settings: protein: recombinant;recombinant;recombinant;recombinant, (HisTrap purification), Cy5 maleimide at C41;, copies: 1;1;1;2, label: 5' biotin-TEG and Cy3 (amino dT-C6) on template, 7 nt upstream from primer 3' terminus, 5' overhang 14 nt on template, matched G:C terminus
[9] = molecular target: T2, Pol III alpha Y453A (clamp-binding …); test: smFRET; dCTP, Mg2+; kon,fast 0.6±0.1, kon,slow 0.05±0.01, koff 0.30±0.01 s-1; 20 mM Hepes pH 7.6, 5 mM potassium glutamate, 3 mM magnesium acetate, 2 mM DTT, 2 mM Trolox, 25 nM enzyme, 10 uM dCTP; temperature not stated. PIFE with unlabeled Pol III alpha or alpha-epsilon at 25 nM showed no binding (DNA not specified, not listed); settings: protein: recombinant;recombinant;recombinant;recombinant, (HisTrap purification), Cy5 maleimide at C41;, copies: 1;1;1;2, label: 5' biotin-TEG and Cy3 (amino dT-C6) on template, 7 nt upstream from primer 3' terminus, 5' overhang 14 nt on template, terminal G:T mismatch
[10] = molecular target: T1, Pol III alpha (clamp-binding enhanced; …); test: smFRET; dCTP, Mg2+; kon,fast 0.6±0.1, kon,slow 0.010±0.003, koff 0.20±0.01 s-1; 20 mM Hepes pH 7.6, 5 mM potassium glutamate, 3 mM magnesium acetate, 2 mM DTT, 2 mM Trolox, 25 nM enzyme, 10 uM dCTP; temperature not stated. PIFE with unlabeled Pol III alpha or alpha-epsilon at 25 nM showed no binding (DNA not specified, not listed); settings: protein: recombinant;recombinant;recombinant;recombinant, (HisTrap purification), Cy5 maleimide at C41;, copies: 1;1;1;2, label: 5' biotin-TEG and Cy3 (amino dT-C6) on template, 7 nt upstream from primer 3' terminus, 5' overhang 14 nt on template, terminal G:T mismatch

B1: G:ddC (dsDNA)
DNA 1: CATAATATCCTCAGGAGTCCTTCGTCCTAGTACTACTCA
DNA 2: TGAGTAGTACTAGGACGAAGGACTC
modifications: 3' dideoxycytosine on primer
- binding result [1]: binds
- binding result [2]: binds

B2: G:AA (dsDNA)
DNA 1: B1 DNA 1
DNA 2: TGAGTAGTACTAGGACGAAGGACAA
modifications: phosphorothioate not stated for this DNA
- binding result [3]: binds
- binding result [4]: binds

B3: G:A (dsDNA)
DNA 1: B1 DNA 1
DNA 2: TGAGTAGTACTAGGACGAAGGACTA
modifications: phosphorothioate in primer (position not given)
- binding result [5]: binds
- binding result [6]: binds

B4: G:C (dsDNA)
DNA 1: B1 DNA 1
DNA 2: TGAGTAGTACTAGGACGAAGGACTC
- binding result [7]: binds
- binding result [8]: binds

B5: G:T (dsDNA)
DNA 1: B1 DNA 1
DNA 2: TGAGTAGTACTAGGACGAAGGACTT
modifications: phosphorothioate in primer (position not given)
- binding result [9]: binds
- binding result [10]: binds
